Assay results published in publication PMC3415446.

Experiments:
[1] = target: NDV Ulster HN NA domain (residues 124-616), containing the C-terminal extension (Newcastle disease virus (NDV), strain Ulster); experiment: SDS-PAGE under non-reducing conditions
[2] = target: NDV Ulster HN NA domain (residues 124-616), containing the C-terminal extension (Newcastle disease virus (NDV), strain Ulster); experiment: sucrose density gradient sedimentation
[3] = target: NDV Ulster HN NA domain (residues 124-616), containing the C-terminal extension (Newcastle disease virus (NDV), strain Ulster); experiment: SEC
[4] = target: NDV Ulster HN NA domain (residues 124-616), containing the C-terminal extension (Newcastle disease virus (NDV), strain Ulster); experiment: negative-stain electron microscopy
[5] = target: NDV Ulster HN ectodomain (residues 49-616) (Newcastle disease virus (NDV), strain Ulster); experiment: SDS-PAGE under non-reducing conditions
[6] = target: NDV Ulster HN ectodomain (residues 49-616) (Newcastle disease virus (NDV), strain Ulster); experiment: not stated; ectodomain in solution; method not given

Measured: stoichiometry N

NDV Ulster HN NA domain (residues 124-616), containing the C-terminal extension (domain or fragment)
2: [1] | [2] | [3] | [4]

NDV Ulster HN ectodomain (residues 49-616) (domain or fragment)
2: [5] | [6]
